Measured values as given in US20260242419A1, “A CYCLIC PEPTIDE FOR TRAPPING INTERLEUKIN-1 BETA” (Merck Sharp & Dohme LLC, priority 2023, published 2026).
Starred links: 1 amine or outer side, 2 acyl side, 3 side chain; linkers in the order of their positions; H or OH if unused. Non-standard residues stand in square brackets, D forms with d. TyrEtNAc = (2S)-3-[4-(2-acetamidoethoxy)phenyl]-2-amino-propanoic acid, CC(=O)NCCOc1ccc(C[C@H](N[*:1])C(=O)[*:2])cc1; dPro(4R-(4-pyridylmethyl)) = O=C(O)[C@H]1C[C@@H](Cc2ccncc2)CN1; Trp(βS-Me,4-F) = C[C@@H](c1c[nH]c2cccc(F)c12)[C@H](N)C(=O)O; Ala(pyrimidin-5-yl) = N[C@@H](Cc1cncnc1)C(=O)O; Phe(4-CONH2) = NC(=O)c1ccc(C[C@H](N)C(=O)O)cc1; Pro(cis-4-F) = O=C(O)[C@@H]1C[C@H](F)CN1; 4Pal = N[C@@H](Cc1ccncc1)C(=O)O; Dab = NCC[C@H](N)C(=O)O; Aib = CC(C)(N)C(=O)O

Target: Recombinant human IL-1β (BioLegend 579404) (human, UniProt P01584 117-269)
Test: cell-based or functional assay

MRC5 IC50: 0.086 nM
Binder: cyclo([TyrEtNAc][4Pal][Phe(4-CONH2)]G[Pro(cis-4-F)][Trp(βS-Me,4-F)][Aib]SW[Aib][Ala(pyrimidin-5-yl)]Q[Dab]G[dPro(4R-(4-pyridylmethyl))]) [SEQ ID NO 384]
